Measured values published in patent US20190276511A1 (BIONTECH RNA PHARMACEUTICALS, published 2019).
Read-outs that look alike come from different tables or passages of the source.

T1: CD27-Fc (human, UniProt P26842 20-191)
T1 construct: extracellular domain; hinge included for covalent assembly; also called CD27 receptor-Fc fusion protein; not shown: human Fc gamma 1 region including the hinge region
T1 sequence (looked up): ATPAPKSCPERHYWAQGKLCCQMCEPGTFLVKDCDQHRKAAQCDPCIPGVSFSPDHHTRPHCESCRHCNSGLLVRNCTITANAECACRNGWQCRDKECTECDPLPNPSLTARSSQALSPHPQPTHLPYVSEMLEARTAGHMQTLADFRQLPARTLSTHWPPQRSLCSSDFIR

T2: OX40-Fc (human, UniProt P43489 29-214)
T2 construct: extracellular domain; hinge included for covalent assembly; also called OX40 receptor-Fc fusion protein; not shown: human Fc gamma 1 region including the hinge region
T2 sequence (looked up): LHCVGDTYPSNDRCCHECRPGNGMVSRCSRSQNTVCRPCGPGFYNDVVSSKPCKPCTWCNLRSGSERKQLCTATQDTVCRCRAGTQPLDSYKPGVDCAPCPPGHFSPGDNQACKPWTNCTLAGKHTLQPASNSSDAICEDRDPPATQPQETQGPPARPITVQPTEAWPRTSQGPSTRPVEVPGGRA

T3: OX40 receptor on cells (human, UniProt P43489 29-277)
T3 sequence (looked up): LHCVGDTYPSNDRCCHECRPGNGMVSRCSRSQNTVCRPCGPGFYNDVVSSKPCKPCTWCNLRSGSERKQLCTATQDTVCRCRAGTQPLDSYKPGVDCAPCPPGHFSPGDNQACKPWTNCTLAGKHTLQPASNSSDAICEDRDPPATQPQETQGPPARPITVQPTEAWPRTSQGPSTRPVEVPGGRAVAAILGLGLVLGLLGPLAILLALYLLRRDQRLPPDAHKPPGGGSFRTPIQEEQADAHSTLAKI


Experiments:
CD40-Fc [1] = target: T4, CD40-Fc (human, UniProt P25942 21-193); assay: ELISA, coated receptor-Fc
T4 construct: extracellular domain; hinge included for covalent assembly; also called CD40 receptor-Fc fusion protein; not shown: human Fc gamma 1 region including the hinge region
Method: (§1) Receptor binding of the Duokines was analyzed by ELISA using fusion proteins of the extracellular region of CD40, CD27, 4-1BB and OX40, respectively, with the human Fcγ1 region including the hinge region for covalent assembly (CD40-Fc, CD27-Fc, 4-1BB-Fc, OX40-Fc). Receptor-Fc fusion proteins (200 ng/well) were coated overnight at 4° C. and remaining binding sites were blocked with PBS, 2% skimmed milk powder (2% MPBS).

CD27-Fc [2] = target: T1, CD27-Fc; assay: ELISA, coated receptor-Fc
Method: as §1

4-1BB-Fc = target: T5, 4-1BB-Fc (human, UniProt Q07011 24-186); assay: ELISA, coated receptor-Fc
T5 construct: extracellular domain; hinge included for covalent assembly; also called 4-1BB receptor-Fc fusion protein; not shown: human Fc gamma 1 region including the hinge region

OX40-Fc = target: T2, OX40-Fc; assay: ELISA, coated receptor-Fc
CD40 receptor on cells [3] = target: T6, CD40 receptor on cells (human, UniProt P25942 21-277); assay: cell-based or functional assay
CD40-Fc [4] = target: T4, CD40-Fc; assay: ELISA, coated receptor-Fc; remark: listed apart in the source
OX40 receptor on cells [5] = target: T3, OX40 receptor on cells; assay: cell-based or functional assay
CD40 receptor on cells [6] = target: T6, CD40 receptor on cells; assay: cell-based or functional assay; remark: listed apart in the source
CD40-Fc [7] = target: T4, CD40-Fc; assay: ELISA, coated receptor-Fc; remark: listed apart in the source
Method: as §1, with “of the single-chain Duokines was” for “of the Duokines was”, “(2% MPBS). […] The interactions between scDuokine and receptor were dose-dependent with EC₅₀ values in the low nanomolar ranges (FIG. 11 AB, Tab. 2).” for “(2% MPBS).”

CD27-Fc [8] = target: T1, CD27-Fc; assay: ELISA, coated receptor-Fc; remark: listed apart in the source
Method: as §1, with “of the single-chain Duokines was” for “of the Duokines was”, “(2% MPBS). […] The interactions between scDuokine and receptor were dose-dependent with EC₅₀ values in the low nanomolar ranges (FIG. 11 AB, Tab. 2).” for “(2% MPBS).”

OX40 receptor on cells [9] = target: T3, OX40 receptor on cells; assay: cell-based or functional assay; remark: listed apart in the source

T6 sequence (P25942 21-277): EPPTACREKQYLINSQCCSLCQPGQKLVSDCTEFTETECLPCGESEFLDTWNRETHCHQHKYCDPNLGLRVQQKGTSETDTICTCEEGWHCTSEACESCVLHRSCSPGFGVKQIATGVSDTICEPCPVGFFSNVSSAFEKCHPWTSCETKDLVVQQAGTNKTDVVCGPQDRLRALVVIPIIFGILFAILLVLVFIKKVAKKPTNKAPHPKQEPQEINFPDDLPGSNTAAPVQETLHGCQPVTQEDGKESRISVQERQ
T4 sequence (P25942 21-193 limits assumed): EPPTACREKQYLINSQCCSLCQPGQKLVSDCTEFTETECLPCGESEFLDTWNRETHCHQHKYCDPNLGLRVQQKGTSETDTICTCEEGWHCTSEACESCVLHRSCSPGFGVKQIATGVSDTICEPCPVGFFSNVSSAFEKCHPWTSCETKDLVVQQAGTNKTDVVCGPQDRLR

Binder	EC50 (CD40-Fc [1]) [nM]	EC50 (CD27-Fc [2]) [nM]	binding result (4-1BB-Fc)	binding result (OX40-Fc)	Receptor activation (EC50, nM) (CD40 receptor on cells [3]) [nM]	binding result (CD40-Fc [4])	Receptor activation (EC50, nM) (OX40 receptor on cells [5]) [nM]	Receptor activation (EC50, nM) (CD40 receptor on cells [6]) [nM]	EC50 (CD40-Fc [7]) [nM]	EC50 (CD27-Fc [8]) [nM]	Receptor activation (EC50, nM) (OX40 receptor on cells [9]) [nM]
CD40L-CD27L (ligand, Duokine from HEK293, FLAG-purified; VH leader left out; homotrimer by SEC; also called Duokine CD40L-CD27L; not shown: N-terminal FLAG tag) GDQNPQIAAHVISEASSKTTSVLQWAEKGYYTMSNNLVTLENGKQLTVKRQGLYYIYAQVTFCSNREASSQAPFIASLCLKSPGRFERILLRAANTHSSAKPCGQQSIHLGGVFELQPGASVFVNVTDPSQVSHGTGFTSFGLLKLGGGGSGGGGSGGGGSSLGWDVAELQLNHTGPQQDPRLYWQGGPALGRSFLHGPELDKGQLRIHRDGIYMVHIQVTLAICSSTTASRHHPTTLAVGICSPASRSISLLRLSFHQGCTIASQRLTPLARGDTLCTNLTGTLLPSRNTDETFFGVQWVRP	8.06	3.15	no binding (tested: 100 nM (FIG. 4))	no binding (tested: 100 nM (FIG. 4))	2.36						
OX40L-CD27L (ligand, Duokine from HEK293, FLAG-purified; VH leader left out; homotrimer by SEC; also called Duokine OX40L-CD27L; not shown: N-terminal FLAG tag) QVSHRYPRIQSIKVQFTEYKKEKGFILTSQKEDEIMKVQNNSVIINCDGFYLISLKGYFSQEVNISLHYQKDEEPLFQLKKVRSVNSLMVASLTYKDKVYLNVTTDNTSLDDFHVNGGELILIHQNPGEFCVLGGGGSGGGGSGGGGSSLGWDVAELQLNHTGPQQDPRLYWQGGPALGRSFLHGPELDKGQLRIHRDGIYMVHIQVTLAICSSTTASRHHPTTLAVGICSPASRSISLLRLSFHQGCTIASQRLTPLARGDTLCTNLTGTLLPSRNTDETFFGVQWVRP		1.7	no binding (tested: 100 nM (FIG. 4))			no binding (tested: 100 nM (FIG. 4))	6.58				
scCD40L-scCD27L (ligand, scDuokine from HEK293, FLAG-purified; VH leader left out; also called single-chain Duokine scCD40L-scCD27L; not shown: N-terminal FLAG tag) GDQNPQIAAHVISEASSKTTSVLQWAEKGYYTMSNNLVTLENGKQLTVKRQGLYYIYAQVTFCSNREASSQAPFIASLCLKSPGRFERILLRAANTHSSAKPCGQQSIHLGGVFELQPGASVFVNVTDPSQVSHGTGFTSFGLLKLGGGSGGGGDQNPQIAAHVISEASSKTTSVLQWAEKGYYTMSNNLVTLENGKQLTVKRQGLYYIYAQVTFCSNREASSQAPFIASLCLKSPGRFERILLRAANTHSSAKPCGQQSIHLGGVFELQPGASVFVNVTDPSQVSHGTGFTSFGLLKLGGGSGGGGDQNPQIAAHVISEASSKTTSVLQWAEKGYYTMSNNLVTLENGKQLTVKRQGLYYIYAQVTFCSNREASSQAPFIASLCLKSPGRFERILLRAANTHSSAKPCGQQSIHLGGVFELQPGASVFVNVTDPSQVSHGTGFTSFGLLKLGGGGSGGGTGGGGSSLGWDVAELQLNHTGPQQDPRLYWQGGPALGRSFLHGPELDKGQLRIHRDGIYMVHIQVTLAICSSTTASRHHPTTLAVGICSPASRSISLLRLSFHQGCTIASQRLTPLARGDTLCTNLTGTLLPSRNTDETFFGVQWVRPGGGSGGGSLGWDVAELQLNHTGPQQDPRLYWQGGPALGRSFLHGPELDKGQLRIHRDGIYMVHIQVTLAICSSTTASRHHPTTLAVGICSPASRSISLLRLSFHQGCTIASQRLTPLARGDTLCTNLTGTLLPSRNTDETFFGVQWVRPGGGSGGGSLGWDVAELQLNHTGPQQDPRLYWQGGPALGRSFLHGPELDKGQLRIHRDGIYMVHIQVTLAICSSTTASRHHPTTLAVGICSPASRSISLLRLSFHQGCTIASQRLTPLARGDTLCTNLTGTLLPSRNTDETFFGVQWVRP			no binding (tested: 100 nM (FIG. 10))	no binding (tested: 100 nM (FIG. 10))				3.1	4.26	3.42	
CD27L-CD40L (ligand, Duokine from HEK293, FLAG-purified; VH leader left out; homotrimer by SEC; also called Duokine CD27L-CD40L; not shown: N-terminal FLAG tag) SLGWDVAELQLNHTGPQQDPRLYWQGGPALGRSFLHGPELDKGQLRIHRDGIYMVHIQVTLAICSSTTASRHHPTTLAVGICSPASRSISLLRLSFHQGCTIASQRLTPLARGDTLCTNLTGTLLPSRNTDETFFGVQWVRPGGGGSGGGGSGGGGSGDQNPQIAAHVISEASSKTTSVLQWAEKGYYTMSNNLVTLENGKQLTVKRQGLYYIYAQVTFCSNREASSQAPFIASLCLKSPGRFERILLRAANTHSSAKPCGQQSIHLGGVFELQPGASVFVNVTDPSQVSHGTGFTSFGLLKL	3.31	5.9	no binding (tested: 100 nM (FIG. 4))	no binding (tested: 100 nM (FIG. 4))	2.99						
scCD27L-scCD40L (ligand, scDuokine from HEK293, FLAG-purified; VH leader left out; also called single-chain Duokine scCD27L-scCD40L; not shown: N-terminal FLAG tag) SLGWDVAELQLNHTGPQQDPRLYWQGGPALGRSFLHGPELDKGQLRIHRDGIYMVHIQVTLAICSSTTASRHHPTTLAVGICSPASRSISLLRLSFHQGCTIASQRLTPLARGDTLCTNLTGTLLPSRNTDETFFGVQWVRPGGGSGGGSLGWDVAELQLNHTGPQQDPRLYWQGGPALGRSFLHGPELDKGQLRIHRDGIYMVHIQVTLAICSSTTASRHHPTTLAVGICSPASRSISLLRLSFHQGCTIASQRLTPLARGDTLCTNLTGTLLPSRNTDETFFGVQWVRPGGGSGGGSLGWDVAELQLNHTGPQQDPRLYWQGGPALGRSFLHGPELDKGQLRIHRDGIYMVHIQVTLAICSSTTASRHHPTTLAVGICSPASRSISLLRLSFHQGCTIASQRLTPLARGDTLCTNLTGTLLPSRNTDETFFGVQWVRPGGGGSGGGTGGGGSGDQNPQIAAHVISEASSKTTSVLQWAEKGYYTMSNNLVTLENGKQLTVKRQGLYYIYAQVTFCSNREASSQAPFIASLCLKSPGRFERILLRAANTHSSAKPCGQQSIHLGGVFELQPGASVFVNVTDPSQVSHGTGFTSFGLLKLGGGSGGGGDQNPQIAAHVISEASSKTTSVLQWAEKGYYTMSNNLVTLENGKQLTVKRQGLYYIYAQVTFCSNREASSQAPFIASLCLKSPGRFERILLRAANTHSSAKPCGQQSIHLGGVFELQPGASVFVNVTDPSQVSHGTGFTSFGLLKLGGGSGGGGDQNPQIAAHVISEASSKTTSVLQWAEKGYYTMSNNLVTLENGKQLTVKRQGLYYIYAQVTFCSNREASSQAPFIASLCLKSPGRFERILLRAANTHSSAKPCGQQSIHLGGVFELQPGASVFVNVTDPSQVSHGTGFTSFGLLKL			no binding (tested: 100 nM (FIG. 10))	no binding (tested: 100 nM (FIG. 10))				3.7	8.04	3.3	
scOX40L-scCD27L (ligand, scDuokine from HEK293, FLAG-purified; VH leader left out; also called single-chain Duokine scOX40L-scCD27L; not shown: N-terminal FLAG tag) QVSHRYPRIQSIKVQFTEYKKEKGFILTSQKEDEIMKVQNNSVIINCDGFYLISLKGYFSQEVNISLHYQKDEEPLFQLKKVRSVNSLMVASLTYKDKVYLNVTTDNTSLDDFHVNGGELILIHQNPGEFCVLGGGSGGGQVSHRYPRIQSIKVQFTEYKKEKGFILTSQKEDEIMKVQNNSVIINCDGFYLISLKGYFSQEVNISLHYQKDEEPLFQLKKVRSVNSLMVASLTYKDKVYLNVTTDNTSLDDFHVNGGELILIHQNPGEFCVLGGGSGGGQVSHRYPRIQSIKVQFTEYKKEKGFILTSQKEDEIMKVQNNSVIINCDGFYLISLKGYFSQEVNISLHYQKDEEPLFQLKKVRSVNSLMVASLTYKDKVYLNVTTDNTSLDDFHVNGGELILIHQNPGEFCVLGGGGSGGGTGGGGSSLGWDVAELQLNHTGPQQDPRLYWQGGPALGRSFLHGPELDKGQLRIHRDGIYMVHIQVTLAICSSTTASRHHPTTLAVGICSPASRSISLLRLSFHQGCTIASQRLTPLARGDTLCTNLTGTLLPSRNTDETFFGVQWVRPGGGSGGGSLGWDVAELQLNHTGPQQDPRLYWQGGPALGRSFLHGPELDKGQLRIHRDGIYMVHIQVTLAICSSTTASRHHPTTLAVGICSPASRSISLLRLSFHQGCTIASQRLTPLARGDTLCTNLTGTLLPSRNTDETFFGVQWVRPGGGSGGGSLGWDVAELQLNHTGPQQDPRLYWQGGPALGRSFLHGPELDKGQLRIHRDGIYMVHIQVTLAICSSTTASRHHPTTLAVGICSPASRSISLLRLSFHQGCTIASQRLTPLARGDTLCTNLTGTLLPSRNTDETFFGVQWVRP			no binding (tested: 100 nM (FIG. 10))			no binding (tested: 100 nM (FIG. 10))				4.62	1.27
